Results: patent US20240123029A1 (HUMANITAS MIRASOLE S P A, published 2024)

Target: T1, SARS-CoV-2 S1 protein, His Tag (SARS-CoV-2, UniProt P0DTC2 16-685)
T1 construct: domain: S1; Bought
Assay: ELISA, His-tagged viral protein captured on nickel plates (6.25-50 pmol/mL)

B1: Purified C-reactive protein (CRP) (other)
chain: QTDMSRKAFVFPKESDTSYVSLKAPLTKPLKAFTVCLHFYTELSSTRGYSIFSYATKRQDNEILIFWSKDIGYSFTVGGSEILFEVPEVTVAPVHICTSWESASGIVEFWVDGKPRVRKSLKKGYTVGAEASIILGQEQDSFGGNFEGSQSLVGDIGNVNMWDFVLSPDEINTIYLGGPFSPNVLNWRALKYEVQGEVFTKPQLWP
binding result: no binding (tested: CRP 3 µg/mL)
